Assay results as given in patent US20250154231A1.
Where two headings read alike, the source gives them in different places.

What was measured:
Test in all cases: cell-based or functional assay
[1] = target: SARS-CoV-2 spike (S) protein, Omicron BA.2.3.20 (SARS-CoV-2) (UniProt P0DTC2)
[2] = target: SARS-CoV-2 spike (S) protein, Omicron BJ.1 (SARS-CoV-2) (UniProt P0DTC2)
[3] = target: SARS-CoV-2 spike (S) protein, Omicron BA.2.75.2 (SARS-CoV-2) (UniProt P0DTC2)
[4] = target: SARS-CoV-2 spike (S) protein, Omicron BA.2 (SARS-CoV-2) (UniProt P0DTC2)
[5] = target: SARS-CoV-2 spike (S) protein, Victoria strain (SARS-CoV-2) (UniProt P0DTC2)
[6] = target: SARS-CoV-2 spike (S) protein, Omicron BA.2.75 (SARS-CoV-2) (UniProt P0DTC2)
[7] = target: SARS-CoV-2 spike (S) protein, Omicron BA.4.6 (SARS-CoV-2) (UniProt P0DTC2)
[8] = target: SARS-CoV-2 spike (S) protein, Omicron BA.4/5 (SARS-CoV-2) (UniProt P0DTC2)
[9] = target: SARS-CoV-2 Omicron BA.1.1 spike (S) protein, pseudovirus construct (SARS-CoV-2) (UniProt P0DTC2)
[10] = target: SARS-CoV-2 Omicron BA.3 spike (S) protein (SARS-CoV-2) (UniProt P0DTC2)
[11] = target: SARS-CoV-2 Gamma (P.1) spike (S) protein (SARS-CoV-2) (UniProt P0DTC2)
[12] = target: SARS-CoV-2 Omicron BA.2 spike (S) protein, pseudovirus construct (SARS-CoV-2) (UniProt P0DTC2)
[13] = target: SARS-CoV-2 Omicron BA.4/5 spike (S) protein (SARS-CoV-2) (UniProt P0DTC2)
[14] = target: SARS-CoV-2 Omicron (BA.1) spike (S) protein, live virus isolate (SARS-CoV-2) (UniProt P0DTC2)
[15] = target: SARS-CoV-2 Omicron BA.2 spike (S) protein (SARS-CoV-2) (UniProt P0DTC2)
[16] = target: SARS-CoV-2 Omicron BA.1 spike (S) protein of the pseudovirus (SARS-CoV-2) (UniProt P0DTC2)
[17] = target: SARS-CoV-2 Alpha (B.1.1.7) spike (S) protein (SARS-CoV-2) (UniProt P0DTC2)
[18] = target: SARS-CoV-2 Beta spike (S) protein (SARS-CoV-2) (UniProt P0DTC2)
[19] = target: SARS-CoV-2 Omicron BA.1 spike (S) protein of the live isolate (SARS-CoV-2) (UniProt P0DTC2)
[20] = target: SARS-CoV-2 Omicron BA.3 spike (S) protein, pseudovirus construct (SARS-CoV-2) (UniProt P0DTC2)
[21] = target: SARS-CoV-2 Alpha spike (S) protein (SARS-CoV-2) (UniProt P0DTC2)
[22] = target: SARS-CoV-2 spike (S) protein, Omicron BA.1.1 (SARS-CoV-2) (UniProt P0DTC2)
[23] = target: SARS-CoV-2 spike (S) protein, Omicron BA.2 (SARS-CoV-2) (UniProt P0DTC2); remark: listed apart in the source
[24] = target: SARS-CoV-2 spike (S) protein, Omicron BA.3 (SARS-CoV-2) (UniProt P0DTC2)
[25] = target: SARS-CoV-2 spike (S) protein, Victoria strain (SARS-CoV-2) (UniProt P0DTC2); remark: listed apart in the source
[26] = target: SARS-CoV-2 spike (S) protein, Omicron BA.1 (SARS-CoV-2) (UniProt P0DTC2)
[27] = target: SARS-CoV-2 Omicron BA.1 spike (S) protein, pseudovirus construct (SARS-CoV-2) (UniProt P0DTC2)
[28] = target: SARS-CoV-2 spike (S) protein, Omicron BA.2.75 (SARS-CoV-2) (UniProt P0DTC2); remark: listed apart in the source
[29] = target: SARS-CoV-2 spike (S) protein, Omicron BA.4/5 (SARS-CoV-2) (UniProt P0DTC2); remark: listed apart in the source
[30] = target: SARS-CoV-2 Gamma spike (S) protein (SARS-CoV-2) (UniProt P0DTC2)
[31] = target: SARS-CoV-2 Beta (B.1.351) spike (S) protein (SARS-CoV-2) (UniProt P0DTC2)
[32] = target: SARS-CoV-2 Victoria spike (S) protein (SARS-CoV-2) (UniProt P0DTC2)
[33] = target: SARS-CoV-2 Omicron BA.1.1 spike (S) protein (SARS-CoV-2) (UniProt P0DTC2)
[34] = target: SARS-CoV-2 Delta spike (S) protein (SARS-CoV-2) (UniProt P0DTC2)
[35] = target: SARS-CoV-2 spike (S) protein, Omicron BA.2 (SARS-CoV-2) (UniProt P0DTC2); remark: listed apart in the source
[36] = target: SARS-CoV-2 spike (S) protein, Omicron BA.2.75 (SARS-CoV-2) (UniProt P0DTC2); remark: listed apart in the source

Omi-32 (antibody), sequence (VH): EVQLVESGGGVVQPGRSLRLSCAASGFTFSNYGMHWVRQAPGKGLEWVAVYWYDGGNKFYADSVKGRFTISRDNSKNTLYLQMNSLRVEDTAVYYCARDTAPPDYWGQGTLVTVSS
Omi-32 (antibody), sequence (VL): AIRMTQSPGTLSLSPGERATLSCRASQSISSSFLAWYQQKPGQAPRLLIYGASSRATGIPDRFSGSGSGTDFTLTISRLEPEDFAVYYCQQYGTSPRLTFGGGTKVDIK
Omi-42 (antibody), sequence (VH): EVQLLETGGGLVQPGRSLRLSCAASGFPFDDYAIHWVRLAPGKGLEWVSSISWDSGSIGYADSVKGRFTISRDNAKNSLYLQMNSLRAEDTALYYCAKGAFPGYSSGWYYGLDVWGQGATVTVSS
Omi-42 (antibody), sequence (VL): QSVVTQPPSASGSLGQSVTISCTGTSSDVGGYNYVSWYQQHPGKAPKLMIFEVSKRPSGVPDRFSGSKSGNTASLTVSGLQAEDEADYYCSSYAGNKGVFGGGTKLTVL

Omi-32 (antibody)
IC50, pseudoviral neutralization [1]: > 10 µg/mL
IC50, pseudoviral neutralization [2]: > 10 µg/mL
IC50, pseudoviral neutralization [3]: > 10 µg/mL
IC50, pseudoviral neutralization [4]: 2.68 µg/mL
IC50, pseudoviral neutralization [5]: 0.01 µg/mL
IC50, pseudoviral neutralization [6]: 0.354 µg/mL
IC50, pseudoviral neutralization [7]: > 10 µg/mL
IC50, pseudoviral neutralization [8]: 0.035 µg/mL
Pseudovirus - IC50 [9]: > 10 µg/mL
IC50, pseudovirus neutralization [10]: 1.02 µg/mL
Authentic virus-IC50 [11]: 0.43 µg/mL
Pseudovirus - IC50 [12]: 2.68 µg/mL
IC50, pseudovirus neutralization [13]: 0.035 µg/mL
Authentic virus-IC50 [14]: 0.024 µg/mL
IC50, authentic virus neutralization [15]: 1.9 µg/mL
IC50, pseudovirus neutralization [15]: 2.68 µg/mL
IC50, pseudovirus neutralization [16]: 0.017 µg/mL
Authentic virus-IC50 [17]: 0.102 µg/mL
IC50, authentic virus neutralization [18]: 0.46 µg/mL
IC50, authentic virus neutralization [19]: 0.024 µg/mL
Pseudovirus - IC50 [20]: 1.02 µg/mL
IC50, authentic virus neutralization [21]: 0.102 µg/mL
pseudovirus neutralisation IC50 [22]: > 10 µg/mL
pseudovirus neutralisation IC50 [23]: 2.68 µg/mL
pseudovirus neutralisation IC50 [24]: 1.02 µg/mL
pseudovirus neutralisation IC50 [25]: 0.01 µg/mL
pseudovirus neutralisation IC50 [26]: 0.017 µg/mL
Pseudovirus - IC50 [27]: 0.017 µg/mL
pseudovirus neutralisation IC50 [28]: 0.354 µg/mL
pseudovirus neutralisation IC50 [29]: 0.035 µg/mL
IC50, authentic virus neutralization [30]: 0.43 µg/mL
Authentic virus-IC50 [31]: 0.46 µg/mL
Authentic virus-IC50 [32]: 0.032 µg/mL
IC50, authentic virus neutralization [32]: 0.032 µg/mL
IC50, pseudovirus neutralization [32]: 0.01 µg/mL
Pseudovirus - IC50 [32]: 0.01 µg/mL
IC50, authentic virus neutralization [33]: 4.64 µg/mL
IC50, pseudovirus neutralization [33]: > 10 µg/mL
Authentic virus-IC50 [34]: 0.012 µg/mL
IC50, authentic virus neutralization [34]: 0.012 µg/mL
pseudovirus neutralisation IC50 [35]: 2.61 µg/mL
pseudovirus neutralisation IC50 [36]: 0.354 µg/mL

Omi-42 (antibody)
IC50, pseudoviral neutralization [1]: 0.018 µg/mL
IC50, pseudoviral neutralization [2]: 0.01 µg/mL
IC50, pseudoviral neutralization [3]: 0.011 µg/mL
IC50, pseudoviral neutralization [4]: 0.021 µg/mL
IC50, pseudoviral neutralization [5]: 0.013 µg/mL
IC50, pseudoviral neutralization [6]: 0.003 µg/mL
IC50, pseudoviral neutralization [7]: 0.01 µg/mL
IC50, pseudoviral neutralization [8]: 0.013 µg/mL
Pseudovirus - IC50 [9]: 0.006 µg/mL
IC50, pseudovirus neutralization [10]: 0.025 µg/mL
Authentic virus-IC50 [11]: 0.013 µg/mL
Pseudovirus - IC50 [12]: 0.021 µg/mL
IC50, pseudovirus neutralization [13]: 0.013 µg/mL
Authentic virus-IC50 [14]: 0.014 µg/mL
IC50, authentic virus neutralization [15]: 0.031 µg/mL
IC50, pseudovirus neutralization [15]: 0.021 µg/mL
IC50, pseudovirus neutralization [16]: 0.007 µg/mL
Authentic virus-IC50 [17]: 0.024 µg/mL
IC50, authentic virus neutralization [18]: 0.011 µg/mL
IC50, authentic virus neutralization [19]: 0.014 µg/mL
Pseudovirus - IC50 [20]: 0.025 µg/mL
IC50, authentic virus neutralization [21]: 0.024 µg/mL
pseudovirus neutralisation IC50 [22]: 0.006 µg/mL
pseudovirus neutralisation IC50 [23]: 0.021 µg/mL
pseudovirus neutralisation IC50 [24]: 0.025 µg/mL
pseudovirus neutralisation IC50 [25]: 0.013 µg/mL
pseudovirus neutralisation IC50 [26]: 0.007 µg/mL
Pseudovirus - IC50 [27]: 0.007 µg/mL
pseudovirus neutralisation IC50 [28]: 0.003 µg/mL
pseudovirus neutralisation IC50 [29]: 0.013 µg/mL
IC50, authentic virus neutralization [30]: 0.013 µg/mL
Authentic virus-IC50 [31]: 0.011 µg/mL
Authentic virus-IC50 [32]: 0.016 µg/mL
IC50, authentic virus neutralization [32]: 0.016 µg/mL
IC50, pseudovirus neutralization [32]: 0.013 µg/mL
Pseudovirus - IC50 [32]: 0.013 µg/mL
IC50, authentic virus neutralization [33]: 0.017 µg/mL
IC50, pseudovirus neutralization [33]: 0.006 µg/mL
Authentic virus-IC50 [34]: 0.019 µg/mL
IC50, authentic virus neutralization [34]: 0.019 µg/mL
pseudovirus neutralisation IC50 [35]: 0.021 µg/mL
pseudovirus neutralisation IC50 [36]: 0.003 µg/mL
